Data reported in PMC5800811.

B1: CD59: DMJ (protein)
parent chain: MGIQGGSVLFGLLLVLAVFCHSGHSLQCYNCPNPTADCKTAVNCSSDFDACLITKAGLQVYNKCWKFEHCNFNDVTTRLRENELTYYCCKKDLCNFNEQLENGGTSLSEKTVLLLVTPFLAAAWSLHP
B2: CD59: sgALG6 in MOGS-KO (protein)
parent chain: B1 parent chain
B3: CD59: DNJ (protein)
parent chain: B1 parent chain
B4: CD59: sgALG8 in MOGS-KO (protein)
parent chain: B1 parent chain
B5: CD59: GANAB-KO (protein)
parent chain: B1 parent chain
B6: CD59: KIF (protein)
parent chain: B1 parent chain

Columns and labels:
[1] = 10-11 d drug culture, PIPLC, anti-CD59 flow cytometry; settings: glycan changed form; control: untreated HEK293FF6 cells
[2] = PIPLC treatment, anti-CD59 flow cytometry; settings: glycan changed form

Row | Protein | other: PIPLC resistance of surface CD59 (GPI-inositol acylation) [1] | other: PIPLC resistance of surface CD59 (GPI-inositol acylation) ([2]; control: MOGS-KO cells) | further results
1 | B1 | no change | – | –
2 | B2 | – | decreases | –
3 | B3 | increases | – | –
4 | B4 | – | decreases | –
5 | B5 | – | – | other: PIPLC resistance of surface CD59 (GPI-inositol acylation) ([2]; control: WT HEK293 cells): increases
6 | B6 | no change | – | –
